Reference: patent US20130130315A1 (ADVANCECOR, published 2013)

Biological target: T1, CD133 protein (UniProt O43490 20-865, limits assumed)
T1 construct: whole, on cells; Presented on AC133/293 cells: paraformaldehyde-fixed in the cellular ELISA, unfixed in the phage FACS; also called CD133 antigen; AC133
T1 sequence (looked up): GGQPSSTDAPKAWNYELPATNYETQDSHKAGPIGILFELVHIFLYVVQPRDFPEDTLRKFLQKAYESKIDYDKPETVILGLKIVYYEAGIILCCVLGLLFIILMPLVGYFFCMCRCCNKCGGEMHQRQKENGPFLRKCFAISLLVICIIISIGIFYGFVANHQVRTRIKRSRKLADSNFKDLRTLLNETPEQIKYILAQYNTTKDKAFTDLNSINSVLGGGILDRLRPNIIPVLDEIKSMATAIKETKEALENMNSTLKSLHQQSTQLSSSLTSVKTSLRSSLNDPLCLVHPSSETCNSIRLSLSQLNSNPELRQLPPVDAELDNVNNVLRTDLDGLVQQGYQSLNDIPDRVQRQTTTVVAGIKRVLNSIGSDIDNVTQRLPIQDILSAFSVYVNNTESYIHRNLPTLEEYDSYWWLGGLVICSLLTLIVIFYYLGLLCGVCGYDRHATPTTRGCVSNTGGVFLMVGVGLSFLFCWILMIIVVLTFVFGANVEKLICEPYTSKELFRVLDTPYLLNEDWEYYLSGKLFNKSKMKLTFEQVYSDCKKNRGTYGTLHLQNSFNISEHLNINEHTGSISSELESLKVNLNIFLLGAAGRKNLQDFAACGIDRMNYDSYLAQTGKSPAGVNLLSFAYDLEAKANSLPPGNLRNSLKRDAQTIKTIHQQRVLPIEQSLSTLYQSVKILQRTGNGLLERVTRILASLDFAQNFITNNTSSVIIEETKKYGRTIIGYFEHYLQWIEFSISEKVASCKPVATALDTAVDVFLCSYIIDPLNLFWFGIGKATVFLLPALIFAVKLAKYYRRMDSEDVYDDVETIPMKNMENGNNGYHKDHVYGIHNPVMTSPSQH
Experiment: cellular ELISA, threefold dilution series on fixed AC133/293 cells
Experimental: 1×10⁵ cells in 0.2 ml of medium were added to each well and incubated o/n at 37° C., 5% CO₂ to allow cells to attach to the surface of the plate. The next day wells were washed once with 0.2 ml PBS and fixed with 0.1 ml 2% Paraformaldehyde (in PBS, pH 7.4) for 10-20 min at RT. Wells were washed with PBS-T (PBS+0.1% Tween-20) and blocked with either 1× RotiBlock or 3% milk in PBS-T for 1 hour at RT. After washing with PBS-T, serial dilutions of the respective antibody were added to the wells and incubated at RT for at least one hour while shaking. After washing with PBS-T, 0.1 ml of StrepMAb-Classic-HRP (1:10000 in PBS-T, lba BioTagnology, Göttingen, Germany) or of horseradish peroxidase linked anti-mouse IgG (1:10000 in PBS-T, Dianova, Hamburg, Germany) was added and incubated at RT for one hour with shaking. After washing with PBS-T, 0.1 ml of 1-Step Ultra TMB-ELISA substrate (Thermo Scientific, Braunschweig, Germany) was added and incubated until an adequate blue staining developed. To stop the reaction 0.1 ml 1 M H₂SO₄ was added to each well and absorbance at 450 nm and 595 nm as a reference was measured with an infinite F200 plate reader (TECAN, Männedorf, Switzerland). […] Signals were detected using an anti-mouse IgG-HRP antibody (1:10000 in PBS-T, Dianova, Hamburg, Germany). […]

- binding result: no binding
B1: single chain antibody scFv-hl (scFv, not shown: large carriers)
scFv: EVQLQQSGPDLMKPGASVKISCKASGYSFTNYYVHWVKQSLDKSLEWIGYVDPFNGDFNYNQKFKDKATLTVDKSSSTAYMHLSSLTSEDSAVYYCARGGLDWYDTSYWYFDVWGAGTAVTVSSGGGGSGGGGSGGGGSDILMTQSPKSMSMSLGERVTLSCKASENVDTYVSWYQQKPEQSPKVLIYGASNRYTGVPDRFTGSGSATDFSLTISNVQAEDLADYHCGQSYRYPLTFGAGTKLELK
notes: Orientation heavy-light; Produced and purified solely from E. coli
